Laboratory results reported in paper PMC5952411 (EBioMedicine, 2018).
Substitutions are numbered along the chain they refer to.

Experiments:
Test in all cases: BLI
[1] = target: Pup^E (prokaryotic ubiquitin-like protein Pup with its C-terminal glutamine converted to glutamate), biotinylated (M. tuberculosis) (UniProt P9WHN5)
[2] = target: T1, M. tuberculosis PafA S119A (M. tuberculosis H37Rv, UniProt P9WNU7 1-452, S119A)
T1 sequence: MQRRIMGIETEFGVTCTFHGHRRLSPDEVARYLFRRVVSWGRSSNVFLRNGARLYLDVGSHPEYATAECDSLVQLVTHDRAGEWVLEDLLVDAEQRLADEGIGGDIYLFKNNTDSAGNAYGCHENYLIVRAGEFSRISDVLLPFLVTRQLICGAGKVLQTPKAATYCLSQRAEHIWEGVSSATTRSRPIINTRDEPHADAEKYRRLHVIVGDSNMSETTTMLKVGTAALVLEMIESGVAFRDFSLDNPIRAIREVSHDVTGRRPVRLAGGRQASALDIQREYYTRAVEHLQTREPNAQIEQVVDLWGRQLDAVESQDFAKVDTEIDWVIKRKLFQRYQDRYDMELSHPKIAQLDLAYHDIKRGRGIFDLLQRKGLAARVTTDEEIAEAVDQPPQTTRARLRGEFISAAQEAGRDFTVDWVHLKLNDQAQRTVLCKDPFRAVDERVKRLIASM

[3] = target: T2, M. tuberculosis PafA (Pup ligase), wild type (M. tuberculosis H37Rv, UniProt P9WNU7 1-452)
T2 sequence: T1 sequence with A119S

Molecule: M. tuberculosis PafA pre-incubated with AEBSF (AEBSF covalently bound at S119) (from UniProt P9WNU7 1-452) (enzyme)
- fold KD against WT PafA [1]: 2 fold

B1: Pup^E (prokaryotic ubiquitin-like protein Pup with its C-terminal glutamine converted to glutamate), biotinylated (natural protein)
chain: MAQEQTKRGGGGGDDDDIAGSTAAGQERREKLTEETDDLLDEIDDVLEENAEDFVRAYVQKGGE
modifications: biotinylated with EZLink Sulfo-NHS-LC-Biotin (sites not given)
- binding result [2]: binds
- binding result [3]: binds
